In PMC10350915, “Development of a New Class of CXCR4-Targeting Radioligands Based on the Endogenous Antagonist EPI-X4 for Oncological Applications” (Journal of Medicinal Chemistry, 2023) one finds uptake in adrenal and tissue uptake data, which are given here for one compound.

In one data set the test system is Jurkat xenografts. The data set can be described thus: in vivo. The note with it: female, athymic nude-Foxn1^nu/Foxn1^+, mouse, iv, 200 pmol, 1 h. Here is the method:
(§1) Quantification of the total body distribution of ^177Lu-7 and ^68Ga-7 was performed in Jurkat xenografted mice after intravenous injection of 100 μL, 200 pmol, with […], respectively (n = 5). The mice were sacrificed at 1 h p.i. ^177Lu-7 and ^68Ga-7 accumulated mainly in the kidneys (83.1 ± 25.5 and 75.6 ± 30.3%IA/g, respectively, p = 0.59), liver (5.19 ± 1.08 and 4.08 ± 1.05%IA/g, respectively, p = 0.07) and tumor (2.25 ± 0.43 and 2.24 ± 0.57%IA/g, respectively, p = 0.97), as already seen in the SPECT/CT and PET/CT images (Figures 6 and 7). Uptake in the tumor was lower than for the kidneys and liver but higher as in all other tissues investigated. […] The uptake seen in the liver might be attributed, at least partially, to the fact that CXCR4 is constitutively expressed in the sinusoidal endothelial cells of the murine liver[38] or could be related to another yet-unknown mechanism previously reported for other CXCR4-targeting probes.[11],[39] Regretfully, there are no direct measurements available for the affinity of ^177Lu-7 with the murine CXCR4 (mCXCR4). This is relevant for assessing its total body distribution. However, we have shown that EPI-X4 and EPI-X4 derivatives are active in mouse models of inflammatory diseases[22],[25] and cancer.[40] More specifically, EPI-X4 derivatives such as JM#21 reduced immune cell influx in lungs of mice suffering from allergic asthma or reduced skin inflammation in a murine model of atopic dermatitis upon topical administration. […] Thus, we speculate that the DOTA conjugate of JM#173 (ligand-7) also cross-reacts to the mCXCR4. […] Last, but not the least, the uptake in the kidneys was predominant, and given the highly hydrophilic character of ^177Lu-7, is attributed, at least partially, to its excretion via this path.
(§2) The experimental protocol involving animals was approved by the Veterinary Office (Department of Health) of the Cantonal Basel-Stadt (Approval No. 30515) in accordance with the Swiss regulations for animal treatment. Female athymic nude-Foxn1^nu/Foxn1^+ mice (Envigo, The Netherlands), 4–6 weeks old, were injected subcutaneously with 10^7 Jurkat cells in a 200 μL (1:1) mixture of PBS and Matrigel (CorningMatrigelMembrane matrix, Fischer Scientific, Germany) on the right shoulder. The tumors were allowed to grow for 3–4 weeks before commencement of the experiments.
(§3) Quantitative biodistribution studies of ^177Lu-7 (100 μL, 200 pmol, 0.8–1 MBq) and ^68Ga-7 (100 μL, 200 pmol, 2–3 MBq) were performed after intravenous injection of the radioligand via the tail vein on Jurkat xenografts. […] 1 h after injection of the radioligand, mice were sacrificed, organs of interest and blood were collected, rinsed of excess blood, blotted dry, weighed, and counted in a γ-counter. The samples were counted against a suitable diluted aliquot of the injected solution as the standard and the results are expressed as percentage injected activity per gram of tissue (%IA/g). Statistical analysis between selected organs was performed by Welch’s t-test and p values <0.05 were considered statistically significant.

A short description of the next data set: in vivo. The note with it: female, athymic nude-Foxn1^nu/Foxn1^+, mouse, iv, 200 pmol, total radioactivity. How it is done:
as §1, §2, §3

Square brackets hold non-standard residues; d marks the D form. Peptide text beside a SMILES is read from it. * marks the point of attachment. DOTA = O=C(O)CN1CCN(CC(=O)O)CCN(CC(=O)*)CCN(CC(=O)O)CC1

Regarding `CC[C@@H](C)[C@@H](N)C(=O)N[C@@H](CC(C)C)C(=O)N[C@@H](CCCNC(=N)N)C(=O)N[C@@H](Cc1c[nH]c2ccccc12)C(=O)N[C@@H](CO)C(=O)N[C@@H](CCCNC(=N)N)C(=O)N[C@@H](CCCCN)C(=O)N[C@@H](CCCCNC(=O)CN1CCN(CC(=O)O)CCN(CC(=O)O)CCN(CC(=O)O)CC1)C(N)=O` [^177Lu-7, metal not drawn] (H-[dI]LRWSRKK(DOTA)-NH2; N-terminus assumed), the uptake in adrenal in the data set with Jurkat xenografts is recorded as 1.09 ± 0.42 % IA/g. For the same compound, the tissue uptake at 1 h is 0.42 ± 0.12 %ID/g in “in vivo” (uptake in blood); 1.06 ± 0.28 %ID/g in the data set “in vivo” (uptake in femur); 0.21 ± 0.05 %ID/g in “in vivo” (uptake in heart); 0.37 ± 0.1 %ID/g in the data set “in vivo” (uptake in intestine); 83.1 ± 25.5 %ID/g in the data set “in vivo” (uptake in kidney); 5.19 ± 1.08 %ID/g in the data set “in vivo” (uptake in liver). Also, the tissue uptake at 1 h in the data set “in vivo” (uptake in muscle) was determined as 0.27 ± 0.14 %ID/g; in the data set “in vivo” (uptake in pancreas), 0.14 ± 0.02 %ID/g; in the data set “in vivo” (uptake in spleen) it was 0.81 ± 0.16 %ID/g; in “in vivo” (uptake in stomach), 0.3 ± 0.06 %ID/g; in “in vivo” (uptake in tumor), 2.25 ± 0.43 %ID/g.
